According to patent US20030068675, “Position dependent recognition of GNN nucleotide triplets by zinc fingers” (published 2003):
Numbering of substitutions follows the chain as printed.

Assays:
Assay in all cases: EMSA
Details in all cases: tags: MBP fusion
ZFP SBS#1488 = ZFP SBS#1488 (synthetic)
Procedure, shortened: (§1)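 Purified ZFP was titrated against labeled double-stranded target (1 nM or lower, at least 10-fold below expected Kd) carrying the natural binding site with flanks. Binding buffer was 10 mM Tris pH 7.5, 100 mM KCl, 1 mM MgCl2, 0.1 mM ZnCl2, 5 mM DTT, 10% glycerol, 0.02% BSA, with equilibration for at least 45 min. Bound and free target were separated on a 10% polyacrylamide gel.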

ZFP SBS#1492 = target: T1, ZFP SBS#1492 (synthetic)
T1 chain: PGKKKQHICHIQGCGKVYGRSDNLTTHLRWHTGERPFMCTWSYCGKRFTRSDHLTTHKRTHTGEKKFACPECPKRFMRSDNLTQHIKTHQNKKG
Procedure, shortened: as §1

ZFP SBS#1493 = ZFP SBS#1493 (synthetic)
Procedure, shortened: as §1

ZFP SBS#1497 = ZFP SBS#1497 (synthetic)
Procedure, shortened: as §1

ZFP SBS#1494 = target: T2, ZFP SBS#1494 (synthetic)
T2 chain: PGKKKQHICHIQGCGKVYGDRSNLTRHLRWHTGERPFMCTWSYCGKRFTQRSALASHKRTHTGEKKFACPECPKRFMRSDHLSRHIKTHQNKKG
Procedure, shortened: as §1

ZFP SBS#1486 = target: T3, ZFP SBS#1486 (synthetic)
T3 chain: T2 chain with Q50T, R51T
Procedure, shortened: as §1

ZFP SBS#1460 = target: T4, ZFP SBS#1460 (synthetic)
T4 chain: T1 chain with T25A, T26R, T56R, S79A, N81A, T83M, Q84V
Procedure, shortened: as §1

ZFP SBS#1496 = ZFP SBS#1496 (synthetic)
Procedure, shortened: as §1

ZFP SBS#544 = target: T5, ZFP SBS#544 (synthetic)
T5 chain: T1 chain with N23S, T25L, T26R, R50M, D52H, T55K, T56E, T83A, Q84R
Procedure, shortened: as §1

ZFP SBS#548 = target: T6, ZFP SBS#548 (synthetic)
T6 chain: T2 chain with D20R, R21S, N23L, T25Q, Q50M, R51S, S52H, A53H, A55K, S56T
Procedure, shortened: as §1

ZFP SBS#552 = target: T7, ZFP SBS#552 (synthetic)
T7 chain: T1 chain with S21K, N23S, T25V, T26R, R50M, D52H, T55K, Q84R
Procedure, shortened: as §1

ZFP SBS#549 = target: T8, ZFP SBS#549 (synthetic)
T8 chain: T2 chain with D20R, R21S, N23L, T25Q, Q50M, R51S, S52H, A53H, A55K, S56E
Procedure, shortened: as §1

ZFP SBS#554 = target: T9, ZFP SBS#554 (synthetic)
T9 chain: T1 chain with S21K, N23S, T25V, T26R, R50T, T55A, T56S, T83A, Q84R
Procedure, shortened: as §1

ZFP SBS#551 = ZFP SBS#551 (synthetic)
Procedure, shortened: as §1

ZFP SBS#546 = ZFP SBS#546 (synthetic)
Procedure, shortened: as §1

ZFP SBS#545 = target: T10, ZFP SBS#545 (synthetic)
T10 chain: T1 chain with S21K, N23S, T25V, T26R, R50T, T55A, T56S, Q84R
Procedure, shortened: as §1

ZFP SBS#553 = target: T11, ZFP SBS#553 (synthetic)
T11 chain: T1 chain with N23S, T25L, T26R, R50M, D52H, T55K, T56E, Q84R
Procedure, shortened: as §1

ZFP SBS#547 = target: T12, ZFP SBS#547 (synthetic)
T12 chain: T1 chain with S21K, N23S, T25V, T26R, R50T, D52G, T56S, Q84R
Procedure, shortened: as §1

ZFP SBS#550 = target: T13, ZFP SBS#550 (synthetic)
T13 chain: T1 chain with S21K, N23S, T25V, T26R, R50T, S51K, T55A, T56S, Q84R
Procedure, shortened: as §1

ZFP SBS#560 = target: T14, ZFP SBS#560 (synthetic)
T14 chain: T2 chain with D20R, R21S, N23L, T25Q, Q50M, R51S, S52H, A53H, A55K, S56T
Procedure, shortened: as §1

ZFP SBS#543 = ZFP SBS#543 (synthetic)
Procedure, shortened: as §1

ZFP SBS#1498 = target: T15, ZFP SBS#1498 (synthetic)
T15 chain: T2 chain with D20Q, R21S, T25A, R51S, A55T, S56R, H81N, S83A
Procedure, shortened: as §1

ZFP SBS#1499 = target: T16, ZFP SBS#1499 (synthetic)
T16 chain: T2 chain with D20Q, R21S, T25A, Q50T, R51S, S52G, A55T, S56R, H81N, S83A
Procedure, shortened: as §1

ZFP SBS#1522 = ZFP SBS#1522 (synthetic)
Procedure, shortened: as §1

ZFP SBS#1457 = ZFP SBS#1457 (synthetic)
Procedure, shortened: as §1

ZFP SBS#1500 = ZFP SBS#1500 (synthetic)
Procedure, shortened: as §1

Sequence of ZFP SBS#1496 (synthetic) (chain, as listed by the source): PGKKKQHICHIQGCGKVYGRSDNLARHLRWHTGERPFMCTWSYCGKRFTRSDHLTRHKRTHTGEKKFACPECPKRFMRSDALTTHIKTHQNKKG
Sequence of ZFP SBS#1522 (synthetic) (chain, as listed by the source): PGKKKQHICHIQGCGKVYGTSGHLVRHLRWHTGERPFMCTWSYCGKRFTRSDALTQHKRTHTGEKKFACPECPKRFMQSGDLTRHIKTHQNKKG
Sequence of ZFP SBS#1488 (synthetic) (chain, as listed by the source): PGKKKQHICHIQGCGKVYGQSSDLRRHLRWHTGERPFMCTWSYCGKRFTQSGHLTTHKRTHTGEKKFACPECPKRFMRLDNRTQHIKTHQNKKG
Sequence of ZFP SBS#546 (synthetic) (chain, as listed by the source): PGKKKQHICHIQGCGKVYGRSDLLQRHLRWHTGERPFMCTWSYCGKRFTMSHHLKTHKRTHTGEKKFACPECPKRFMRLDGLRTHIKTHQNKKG
Sequence of ZFP SBS#1457 (synthetic) (chain, as listed by the source): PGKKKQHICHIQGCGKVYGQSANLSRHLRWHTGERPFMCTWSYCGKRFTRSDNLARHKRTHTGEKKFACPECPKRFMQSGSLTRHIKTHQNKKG

B1: AAGTGGTAG (dsDNA)
DNA 1: AAGTGGTAG
DNA 2: CTACCACTT
B1 gave a Kd (ZFP SBS#1488) of 5.64 nM, a Kd (ZFP SBS#1492) of 1.37 nM and a Kd (ZFP SBS#1493) of 15.1 nM.

B2: GAGGCTCTT (dsDNA)
DNA 1: GAGGCTCTT
DNA 2: AAGAGCCTC
With B2 the Kd (ZFP SBS#1497) was 0.007 nM.

B3: GGGTTTGAC (dsDNA)
DNA 1: GGGTTTGAC
DNA 2: GTCAAACCC
With B3 the Kd (ZFP SBS#1494) was 0.255 nM and the Kd (ZFP SBS#1486) was 0.085 nM.

B4: TTGGGGGAG (dsDNA)
DNA 1: TTGGGGGAG
DNA 2: CTCCCCCAA
Work on B4 yielded a Kd (ZFP SBS#1460) of 0.007 nM and a Kd (ZFP SBS#1496) of 0.065 nM.

B5: GAGTGTGTGA (dsDNA)
DNA 1: GAGTGTGTGA
DNA 2: TCACACACTC
B5 gave a Kd (ZFP SBS#544) of 125 nM, a Kd (ZFP SBS#548) of 500 nM and a Kd (ZFP SBS#552) of 31 nM. It also gave a Kd (ZFP SBS#549) of 500 nM, a Kd (ZFP SBS#554) of 62.5 nM and a Kd (ZFP SBS#551) of 50 nM. For the same binder, the Kd (ZFP SBS#546) was 500 nM, the Kd (ZFP SBS#545) was 32 nM and the Kd (ZFP SBS#553) was 125 nM. The Kd (ZFP SBS#547) was 500 nM, the Kd (ZFP SBS#550) was 20 nM and the Kd (ZFP SBS#560) was 500 nM. For the same binder, the Kd (ZFP SBS#543) was 50 nM.

B6: GAGGTTGAT (dsDNA)
DNA 1: GAGGTTGAT
DNA 2: ATCAACCTC
B6 gave a Kd (ZFP SBS#1498) of 0.101 nM and a Kd (ZFP SBS#1499) of 0.02 nM.

B7: GCAATGGGT (dsDNA)
DNA 1: GCAATGGGT
DNA 2: ACCCATTGC
B7 was tested, and the Kd (ZFP SBS#1522) was 0.08 nM.

B8: GCAGAGGAA (dsDNA)
DNA 1: GCAGAGGAA
DNA 2: TTCCTCTGC
Work on B8 yielded a Kd (ZFP SBS#1457) of 0.014 nM and a Kd (ZFP SBS#1500) of 0.003 nM.
